Results as given in patent US20250042943A1, “FAP DETECTION” (THE UNIVERSITY COURT OF THE UNIVERSITY OF EDINBURGH, priority 2021, published 2025).
“Also recorded” adds a separate entry of the source. Where a SMILES comes first, the peptide text is derived from it. [ ]: non-standard residue; d: D form. The star is where a group is joined. 5FAM = O=C1OC2(c3ccc(O)cc3Oc3cc(O)ccc32)c2ccc(C(=O)*)cc21; X1 = CN(C)c1ccc(N=Nc2ccccc2C(=O)*)cc1; AEEA = NCCOCCOCC(=O)O

Legend:
[1] = Toxicity in rats, intravenous (bolus) dosing for 7 days; assay type: in vivo; settings: intravenous (bolus) injection of 0.1 mg for 7 days
Description: The potential toxicity of the FAP probe was assessed by dosing rats with an intravenous (bolus) injection of 0.1 mg of the FAP3 probe for 7 days.

[2] = tested on: NSCLC patient tissue samples; assay: Fluorescence intensity and lifetime imaging (FLIM, KronoScan) of ex vivo NSCLC tissue; assay type: cell-based, human; settings: VBP (1:1000) added with FAP3; listed as VBP
Description: For imaging solutions, varying concentrations of rhFAP were prepared in blackened eppendorfs and FAP3 to a final concentration of 5 μm added and imaged as below. For biological specimens, NSCLC patient tissue samples from surgical resection were used fresh or snap frozen and stored at −80 until required. Small fragments (approx. 4 mm^3) incubated at 37° C. in a 96 well plate in phenyl-red free DMEM (Gibco) containing 10% FCS, 1% Penicillin-streptomycin and 1% L-Glutamine. For the inhibitor fragments VBP (1:1000) was added. Samples were then imaged using a clinically tractable novel fluorescence lifetime imaging system, KronoScan, with an imaging fibre providing a 400×400 um field of view. […] This spectrometer contains a 512 channel single photon avalanche diode (SPAD) sensor, allowing for the rapid collection of time resolved spectral fluorescence lifetime data. Fluorescence intensity and lifetime images were collected at 160×160 pixels over a 498-570 nm spectral range with an exposure time of 13 μs per pixel. […]
For each condition the tumour samples were imaged using a fibre placed at the tip of the tissue (baseline), and then again at 10 minute intervals following the additions of equimolar concentrations of probe+/− Inhibitor. […] Each condition and time-point data for both fluorescence intensity and lifetime were collected. […]

[3] = tested on: cancer associated fibroblasts (CAFs) from NSCLC patient samples; assay: Assessment on cancer associated fibroblasts (CAFs); assay type: cell-based, human; settings: co-incubated with FAP3
Description: CAFs were isolated from NSCLC patient samples as previously described methods known in the art. Briefly, tissue samples were minced with forceps and incubated for an hour in prewarmed RPMI media (Gibco) containing collagenase IV [2 mg/ml](Sigma) and DNase [0.2 mg/ml](Sigma). Samples were spun at 350 g for 5 minutes and red blood cells were lysed from samples using RBC lysis buffer (BioLegend) in 10 mls for 10 minutes. Following a further spin at 350 g for 5 minutes, cells were seeded in culture flasks in DMEM containing 10% FCS, 1% Penicillin-Streptomycin, 1% L-Glutamine and 10% Insulin Transferrin Selenium (ITS). 24 hours after seeding, non-adherent cells were washed from the flasks. Cells were maintained by standard cell culture methods and by passage 2, the predominant cell type was CAFs, assessed by flow cytometry markers and morphology. CAFs between passage 4-9 were used to assess FAP probes and confirmed to be FAP^hi by flow cytometry.
CAFs were seeded into 96 well plates in a 100 μl media (complete DMEM as described above) at a density of 1×10^5 cells/ml to form a confluent monolayer within 24 hours. Wells containing cells had media removed and then were washed before buffer (DPBS)+/− inhibitors were added with the imaging probes. Immediately after adding imaging probes, the plate was transferred to the prewarmed spectrophotometer as above and read at 480/530 nm for one hour.

[4] = target: rhDPPIV (Homo sapiens, UniProt P27487); assay: Probe cleavage by recombinant human DPPIV (exopeptidase activity); assay type: biochemical; settings: probe 5 μM, enzyme 0.1 μg/ml, read 480/530 nm
Sequence of rhDPPIV (P27487 whole entry): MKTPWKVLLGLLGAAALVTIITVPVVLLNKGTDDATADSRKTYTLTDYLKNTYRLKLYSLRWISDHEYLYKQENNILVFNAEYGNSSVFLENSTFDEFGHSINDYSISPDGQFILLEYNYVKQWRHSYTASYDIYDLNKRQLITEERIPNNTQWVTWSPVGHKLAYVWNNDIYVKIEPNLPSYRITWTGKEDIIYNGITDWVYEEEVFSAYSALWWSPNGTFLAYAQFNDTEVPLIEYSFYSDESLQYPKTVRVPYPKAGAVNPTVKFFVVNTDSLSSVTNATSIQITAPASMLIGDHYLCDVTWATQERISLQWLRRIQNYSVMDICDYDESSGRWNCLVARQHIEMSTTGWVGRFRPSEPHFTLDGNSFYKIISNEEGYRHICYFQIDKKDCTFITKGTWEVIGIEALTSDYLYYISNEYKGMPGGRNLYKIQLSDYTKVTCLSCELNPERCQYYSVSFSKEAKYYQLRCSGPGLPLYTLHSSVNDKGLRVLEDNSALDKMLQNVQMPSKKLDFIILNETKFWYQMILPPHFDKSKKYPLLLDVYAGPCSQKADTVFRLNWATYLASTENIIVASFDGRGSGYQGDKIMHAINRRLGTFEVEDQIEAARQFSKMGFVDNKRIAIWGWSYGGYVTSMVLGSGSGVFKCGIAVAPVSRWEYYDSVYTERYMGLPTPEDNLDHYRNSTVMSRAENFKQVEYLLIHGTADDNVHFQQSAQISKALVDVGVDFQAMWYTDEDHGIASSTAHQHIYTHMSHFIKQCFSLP

[5] = target: T1, rhFAP (Homo sapiens, UniProt Q12884); assay: Probe cleavage by recombinant human FAP (fluorescence read); assay type: biochemical; settings: for cleavage by rhFAP: probe 5 μM, enzyme 0.1 μg/ml, read 480/530 nm; for signal (relative fluorescence intensity) with rhFAP: comparison between probe iterations; for FAP specificity (over PREP): from recombinant enzyme assessment
T1 sequence (Q12884 1-760): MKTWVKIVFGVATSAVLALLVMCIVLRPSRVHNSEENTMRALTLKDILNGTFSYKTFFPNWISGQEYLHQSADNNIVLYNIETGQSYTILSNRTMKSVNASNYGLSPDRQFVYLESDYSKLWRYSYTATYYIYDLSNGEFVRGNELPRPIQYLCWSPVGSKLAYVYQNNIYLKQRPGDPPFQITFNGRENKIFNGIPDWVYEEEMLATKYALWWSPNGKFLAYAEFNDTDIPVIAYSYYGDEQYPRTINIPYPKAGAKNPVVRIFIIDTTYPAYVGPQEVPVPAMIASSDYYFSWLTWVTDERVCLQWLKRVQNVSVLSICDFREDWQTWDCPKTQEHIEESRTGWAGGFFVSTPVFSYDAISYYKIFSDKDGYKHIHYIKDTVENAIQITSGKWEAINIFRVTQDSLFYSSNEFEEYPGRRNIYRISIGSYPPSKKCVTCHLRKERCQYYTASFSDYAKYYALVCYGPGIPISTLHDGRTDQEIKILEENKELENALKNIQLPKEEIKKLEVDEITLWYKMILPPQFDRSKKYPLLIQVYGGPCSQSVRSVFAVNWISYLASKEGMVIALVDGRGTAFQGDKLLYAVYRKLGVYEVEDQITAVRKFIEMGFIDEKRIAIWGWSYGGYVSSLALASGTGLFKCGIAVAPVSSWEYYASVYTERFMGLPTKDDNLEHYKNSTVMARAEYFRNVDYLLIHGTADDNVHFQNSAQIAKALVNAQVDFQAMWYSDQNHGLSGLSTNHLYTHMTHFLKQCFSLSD

[6] = target: T2, rhPREP (Homo sapiens, UniProt P48147); assay: Probe cleavage by recombinant human PREP; assay type: biochemical; settings: probe 5 μM, enzyme 0.1 μg/ml, read 480/530 nm
T2 sequence (P48147 1-710): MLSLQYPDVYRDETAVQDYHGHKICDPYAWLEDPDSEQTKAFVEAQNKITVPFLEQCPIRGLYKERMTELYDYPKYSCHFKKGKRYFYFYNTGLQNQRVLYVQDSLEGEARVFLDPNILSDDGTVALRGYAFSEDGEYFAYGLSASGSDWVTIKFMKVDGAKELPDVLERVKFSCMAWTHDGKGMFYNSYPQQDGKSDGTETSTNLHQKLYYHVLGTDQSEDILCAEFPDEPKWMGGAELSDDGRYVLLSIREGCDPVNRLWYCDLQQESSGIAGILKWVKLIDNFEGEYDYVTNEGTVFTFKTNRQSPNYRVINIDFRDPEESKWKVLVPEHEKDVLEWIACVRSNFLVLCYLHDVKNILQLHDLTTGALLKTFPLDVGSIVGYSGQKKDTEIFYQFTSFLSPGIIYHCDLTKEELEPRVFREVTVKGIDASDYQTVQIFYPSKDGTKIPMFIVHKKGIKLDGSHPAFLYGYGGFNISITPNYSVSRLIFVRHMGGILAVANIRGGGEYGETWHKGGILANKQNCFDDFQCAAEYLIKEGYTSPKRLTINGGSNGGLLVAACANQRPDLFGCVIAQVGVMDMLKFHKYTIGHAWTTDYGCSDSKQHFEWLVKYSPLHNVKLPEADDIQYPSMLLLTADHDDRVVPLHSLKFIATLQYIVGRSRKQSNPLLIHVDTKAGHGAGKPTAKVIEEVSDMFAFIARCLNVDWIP

[7] = tested on: FAP3

Row | Molecule | cleavage by rhFAP [5] | cleavage by rhPREP [6] | signal (relative fluorescence intensity) with rhFAP [5] | FAP specificity (over PREP) [5] | further results
1 | CC(C)[C@H](NC(=O)[C@@H](N)CCCCNC(=O)c1ccccc1N=Nc1ccc(N(C)C)cc1)C(=O)N[C@H](CO)C(=O)N1CCC[C@H]1C(=O)N[C@@H](CC(N)=O)C(=O)N[C@@H](CCC(N)=O)C(=O)NCC(=O)N[C@@H](CCCCNC(=O)c1ccc2c(c1)C(=O)OC21c2ccc(O)cc2Oc2cc(O)ccc21)C(=O)NCCOCCOCC(=O)N[C@H](CCCCN)C(=O)NCCOCCOCC(=O)N[C@H](CCCCN)C(=O)NCCOCCOCC(=O)N[C@H](CCCCN)C(N)=O [FAP3, Lys(MethylRed)-Val-(D)Ser-Pro-Asn-Gln-Gly-Lys(5-FAM)-[Peg2-(D)Lys]3-NH2] (H-K(X1)V[dS]PNQGK(5FAM)[AEEA][dK][AEEA][dK][AEEA][dK]-NH2) |  |  |  |  | clinical signs [1]: no clinical signs; deaths [1]: no deaths; differences in body weights, body weight gains, food consumption, haematology, coagulation, clinical chemistry, organ weights and macroscopic and microscopic examinations ([1]; compared to a control group): no differences
2 | CC(C)[C@H](N)C(=O)N1CCC[C@H]1B(O)O [Val-boroPro] |  |  |  |  | inhibition of FAP3 intensity and lifetime change in NSCLC tissue [2]: inhibition; also recorded: abrogated; inhibition of FAP3 signal in CAFs [3]: inhibition of signal; inhibition of FAP3 signal in CAFs ([3]; listed as VBP): signal was abrogated
3 | FAM-Peg2-Gly-Pro-Gly-(D)Pro-(D)Asn-Gln-Lys(MethylRed)-NH2 [FAP1DLi-FAM] | lower rate of cleavage; also recorded: FAP activity was significantly reduced | cleaves; also recorded: partial reduction in activity |  |  | cleavage by rhDPPIV (exopeptidase activity) [4]: Neither FAP1Li-FAM or FAP1 DLi-FAM are cleaved; cleavage by rhPREP ([6]; listed as FAP1 DLi-FAM): still demonstrated PREP cleavage
4 | FAM-Peg2-Gly-Pro-Gly-Pro-Asn-Gln-Lys(MethylRed)-NH2 [FAP1Li-FAM] | cleaved rapidly; also recorded: endopeptidase activity | cleaved more rapidly; also recorded: endopeptidase activity | signal intensity of FAP1 is higher |  | cleavage by rhDPPIV (exopeptidase activity) [4]: Neither FAP1Li-FAM or FAP1 DLi-FAM are cleaved; also recorded: did not cleave
5 | FAP on cancer associated fibroblasts (CAFs) from NSCLC patient samples |  |  |  |  | cleavage of FRET probe on a CAF monolayer (fluorescence 480/530 nm, one hour) [7]: FAP3 was cleaved by FAP^+CAFs, with inhibition of signal when co-incubated with Val-boroPro
6 | Lys(MethylRed)-(D)Ala-Pro-Ser-Lys(5-FAM)-[Peg2-(D)Lys]3-NH2 [FAP2BD-Ala] |  |  | reduced signal | FAP specificity over PREP | 
7 | Lys(MethylRed)-(D)Ser-Pro-Ser-Lys(5-FAM)-[Peg2-(D)Lys]3-NH2 [FAP2CD-Ser] | highest rate of cleavage | without PREP cleavage |  | demonstrates FAP specificity | signal (relative fluorescence intensity) with rhFAP ([5]; listed as D-Ser): reduced signal; FAP specificity (over PREP) ([5]; listed as D-Ser): FAP specificity over PREP
8 | Lys(MethylRed)-(D)Thr-Pro-Ser-Lys(5-FAM)-[Peg2-(D)Lys]3-NH2 [FAP2DD-Thr] |  |  | reduced signal | FAP specificity over PREP | 
9 | Lys(MethylRed)-(β)Ala-Pro-Ser-Lys(5-FAM)-[Peg2-(D)Lys]3-NH2 [FAP2Fβ-Ala] |  |  | reduced signal | FAP specificity over PREP | 
10 | Lys(MethylRed)-Ala-Pro-Ser-Lys(5-FAM)-[Peg2-(D)Lys]3-NH2 [FAP2AAla] | FAP activity was absent | is cleaved; also recorded: demonstrated cleavage by PREP |  |  | 
11 | Lys(MethylRed)-D-Tyr-Pro-Ser-Lys(5-FAM)-[Peg2-(D)Lys]3-NH2 [FAP2ED-Tyr] | loss of FAP activity |  |  |  | 
12 | MMP-13 (recombinant enzyme) |  |  |  |  | cleavage of FRET probe by recombinant enzyme (fluorescence) [7]: demonstrating no activity
